Experimental findings from patent publication US20130164214A1 are described below.

One experiment has as its target CD20 (UniProt P11836). The experiment in a line: cell-based or functional assay.
Experiment [1] deals with CD74 (invariant chain, Ii) (human) (UniProt P04233). The experiment in a line: cell-based or functional assay.
CD74 (invariant chain, Ii) (human), sequence (P04233 whole entry, change not shown): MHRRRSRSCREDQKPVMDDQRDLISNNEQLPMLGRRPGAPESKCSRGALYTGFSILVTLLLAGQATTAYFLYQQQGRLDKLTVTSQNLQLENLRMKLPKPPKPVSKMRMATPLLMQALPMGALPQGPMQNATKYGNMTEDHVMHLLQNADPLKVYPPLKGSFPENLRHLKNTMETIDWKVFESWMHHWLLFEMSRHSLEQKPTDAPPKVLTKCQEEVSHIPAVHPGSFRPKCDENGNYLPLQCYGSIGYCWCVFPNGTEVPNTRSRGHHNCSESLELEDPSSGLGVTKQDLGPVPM

CD20, sequence (P11836 whole entry): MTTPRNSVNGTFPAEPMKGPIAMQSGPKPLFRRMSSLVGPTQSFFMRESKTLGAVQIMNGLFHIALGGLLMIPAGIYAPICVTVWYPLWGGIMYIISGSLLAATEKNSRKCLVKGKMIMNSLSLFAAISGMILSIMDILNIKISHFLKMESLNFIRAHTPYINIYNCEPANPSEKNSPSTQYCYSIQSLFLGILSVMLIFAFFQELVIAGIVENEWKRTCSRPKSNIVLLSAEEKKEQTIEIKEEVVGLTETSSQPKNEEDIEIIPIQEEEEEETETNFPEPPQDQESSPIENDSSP

For “20-Rap (hA20 IgG-AD2 with four copies of Rap-DDD2)”, in the experiment with CD20, the in vitro cytotoxicity EC50, Daudi and Ramos NHL cell lines was 100 pM; the in vitro cytotoxicity EC50, Jeko-1 mantle cell lymphoma line is 20 pM.

In experiment [1], “milatuzumab (humanized anti-CD74 LL1 antibody)” showed a reduction of live B cells in human PBMCs after 3 days with antibody, flow cytometry of 22% and a reduction of live mDC2 in human PBMCs after 3 days with antibody, flow cytometry of 53.8%.
